Measured values from paper PMC13354579.

Experiments:
[1] = molecular target: full-length MINDY3 (human) (UniProt Q9H8M7); assay: ITC; MicroCal PEAQ-ITC, 25 °C, 50 mM Tris-HCl pH 7.5, 150 mM NaCl, 250 µM TCEP; DUB in the syringe titrated into K48-linked polyUb in the cell, in other experiments the scarcest species in the cell; n = 2, mean ± SD
[2] = molecular target: K48-linked triubiquitin (UniProt P0CG48); assay: as above

Sequence of full-length MINDY3 (human) (Q9H8M7 whole entry): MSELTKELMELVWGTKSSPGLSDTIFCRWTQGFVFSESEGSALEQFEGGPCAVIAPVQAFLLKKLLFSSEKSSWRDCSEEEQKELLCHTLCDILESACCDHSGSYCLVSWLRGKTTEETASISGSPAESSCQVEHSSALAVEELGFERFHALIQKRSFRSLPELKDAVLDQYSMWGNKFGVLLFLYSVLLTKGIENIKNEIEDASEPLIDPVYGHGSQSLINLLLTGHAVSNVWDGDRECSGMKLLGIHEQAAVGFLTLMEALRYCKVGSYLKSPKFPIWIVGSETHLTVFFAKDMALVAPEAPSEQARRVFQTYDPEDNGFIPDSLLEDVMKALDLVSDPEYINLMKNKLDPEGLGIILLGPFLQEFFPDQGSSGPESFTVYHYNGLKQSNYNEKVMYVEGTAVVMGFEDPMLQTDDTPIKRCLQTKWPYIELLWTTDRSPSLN

| Substance | Kd [1] [µM] | dH [1] [kcal/mol] | Kd [2] [µM] |
| --- | --- | --- | --- |
| full-length RAD23A (from UniProt P54725 1-363) (natural protein) | 12.2 | -1.16 | – |
| MINDY3^EF-hand (from UniProt Q9H8M7 297-370) (domain or fragment) | – | – | 6 |
